The source of these data is patent US20200199241A1 (Chugai, published 2020).

Substitutions are numbered along the chain they refer to.

As a reminder, the Kd is the constant that tells how readily two partners part at equilibrium. A lower Kd goes with higher affinity.

Sequences and labels used below:
B1: IgG1-F848 (antibody)
heavy: QVQLQESGPGLVKPSETLSLTCAVSGHSISHDHAWSWVRQPPGEGLEWIGFISYSGITNYNPSLQGRVTISRDNSKNTLYLQMNSLRAEDTAVYYCARSLARTTAMDYWGEGTLVTVSSASTKGPSVFPLAPSSKSTSGGTAALGCLVKDYFPEPVTVSWNSGALTSGVHTFPAVLQSSGLYSLSSVVTVPSSSLGTQTYICNVNHKPSNTKVDKKVEPKSCDKTHTCPPCPAPELLGGDSVFLFPPKPKDVLYISYTPEVTCVVVDVSHEDPEVKFNWYVDGVEVHNAKTKPREEQYNSTYRVVSVLTVLHQDWLNGKEYKCKVSNKALPAPIEKTISKAKGQPREPQVYTLPPSRDELTKNQVSLTCLVKGFYPSDIAVEWESNGQPENNYKTTPPVLDSDGSFFLYSKLTVDKSRWQQGNVFSCSVMHEALHYHYTQKSLSLSP
light: not shown
notes: EU numbering; copies: 2 + 2
B2: IgG1-F863 (antibody)
heavy: B1 heavy with D240P, V252T, Y257R, D282T
light: not shown
notes: EU numbering; copies: 2 + 2
B3: IgG1-F897 (antibody)
heavy: B1 heavy with D240P, V252T, Y257R, N317D, N386A, N391A
light: not shown
notes: EU numbering; copies: 2 + 2
B4: IgG1-F915 (antibody)
heavy: B1 heavy with D240P, V252T, Y257R, N317D, G318W
light: not shown
notes: EU numbering; copies: 2 + 2
B5: IgG1-F903 (antibody)
heavy: B1 heavy with D240P, V252T, Y257R, N317D, G318H
light: not shown
notes: EU numbering; copies: 2 + 2
B6: IgG1-F895 (antibody)
heavy: B1 heavy with L237K, D240P, S241K, V252T, Y257R, N288E, T309Q, Q313A, N317E
light: not shown
notes: EU numbering; copies: 2 + 2
B7: IgG1-F852 (antibody)
heavy: B1 heavy with D240P, V252T, Y257R, D282G
light: not shown
notes: EU numbering; copies: 2 + 2
B8: IgG1-F849 (antibody)
heavy: B1 heavy with D240P, V252T, Y257R, D282A
light: not shown
notes: EU numbering; copies: 2 + 2
B9: IgG1-F901 (antibody)
heavy: B1 heavy with D240P, V252T, Y257R, N317D, G318E
light: not shown
notes: EU numbering; copies: 2 + 2
B10: IgG1-F861 (antibody)
heavy: B1 heavy with D240P, V252T, Y257R, D282R
light: not shown
notes: EU numbering; copies: 2 + 2
B11: IgG1-F910 (antibody)
heavy: B1 heavy with D240P, V252T, Y257R, N317D, G318Q
light: not shown
notes: EU numbering; copies: 2 + 2
B12: IgG1-F917 (antibody)
heavy: B1 heavy with D240P, V252T, Y257R, N288S
light: not shown
notes: EU numbering; copies: 2 + 2
B13: IgG1-F878 (antibody)
heavy: B1 heavy with D240P, V252T, Y257R, Y438F
light: not shown
notes: EU numbering; copies: 2 + 2
B14: IgG1-F853 (antibody)
heavy: B1 heavy with D240P, V252T, Y257R, D282H
light: not shown
notes: EU numbering; copies: 2 + 2
B15: IgG1-F912 (antibody)
heavy: B1 heavy with D240P, V252T, Y257R, N317D, G318S
light: not shown
notes: EU numbering; copies: 2 + 2
B16: IgG1-F888 (antibody)
heavy: B1 heavy with D240P, V252T, Y257R, Y438S
light: not shown
notes: EU numbering; copies: 2 + 2
B17: IgG1-F877 (antibody)
heavy: B1 heavy with D240P, V252T, Y257R, Y438E
light: not shown
notes: EU numbering; copies: 2 + 2
B18: IgG1-F905 (antibody)
heavy: B1 heavy with D240P, V252T, Y257R, N317D, G318K
light: not shown
notes: EU numbering; copies: 2 + 2
B19: IgG1-F914 (antibody)
heavy: B1 heavy with D240P, V252T, Y257R, N317D, G318V
light: not shown
notes: EU numbering; copies: 2 + 2
B20: IgG1-F868 (antibody)
heavy: B1 heavy with G238A, D240P, S241D, V252T, Y257R, N288E, T309Q, Q313A
light: not shown
notes: EU numbering; copies: 2 + 2
B21: IgG1-F880 (antibody)
heavy: B1 heavy with D240P, V252T, Y257R, Y438H
light: not shown
notes: EU numbering; copies: 2 + 2
B22: IgG1-F906 (antibody)
heavy: B1 heavy with D240P, V252T, Y257R, N317D, G318L
light: not shown
notes: EU numbering; copies: 2 + 2
B23: IgG1-F907 (antibody)
heavy: B1 heavy with D240P, V252T, Y257R, N317D, G318M
light: not shown
notes: EU numbering; copies: 2 + 2
B24: IgG1-F899 (antibody)
heavy: B1 heavy with D240P, V252T, Y257R, N317D, G318A
light: not shown
notes: EU numbering; copies: 2 + 2
B25: IgG1-F872 (antibody)
heavy: B1 heavy with L237K, D240P, S241K, V252T, Y257R, N288E
light: not shown
notes: EU numbering; copies: 2 + 2
B26: IgG1-F898 (antibody)
heavy: B1 heavy with D240P, V252T, Y257R, N317E, N386A, N391A
light: not shown
notes: EU numbering; also called E898; copies: 2 + 2
B27: IgG1-F904 (antibody)
heavy: B1 heavy with D240P, V252T, Y257R, N317D, G318I
light: not shown
notes: EU numbering; copies: 2 + 2
B28: IgG1-F884 (antibody)
heavy: B1 heavy with D240P, V252T, Y257R, Y438N
light: not shown
notes: EU numbering; copies: 2 + 2
B29: IgG1-F879 (antibody)
heavy: B1 heavy with D240P, V252T, Y257R, Y438G
light: not shown
notes: EU numbering; copies: 2 + 2
B30: IgG1-F860 (antibody)
heavy: B1 heavy with D240P, V252T, Y257R, D282Q
light: not shown
notes: EU numbering; copies: 2 + 2
B31: IgG1-F893 (antibody)
heavy: B1 heavy with L237K, D240P, S241K, V252T, Y257R, Y438I
light: not shown
notes: EU numbering; copies: 2 + 2
B32: IgG1-F883 (antibody)
heavy: B1 heavy with D240P, V252T, Y257R, Y438M
light: not shown
notes: EU numbering; copies: 2 + 2
B33: IgG1-F867 (antibody)
heavy: B1 heavy with D240P, V252T, Y257R, N386A, N391A
light: not shown
notes: EU numbering; copies: 2 + 2
B34: IgG1-F881 (antibody)
heavy: B1 heavy with D240P, V252T, Y257R, Y438K
light: not shown
notes: EU numbering; copies: 2 + 2
B35: IgG1-F850 (antibody)
heavy: B1 heavy with D240P, V252T, Y257R, D282E
light: not shown
notes: EU numbering; copies: 2 + 2
B36: IgG1-F873 (antibody)
heavy: B1 heavy with L237R, D240P, S241K, V252T, Y257R, N288E
light: not shown
notes: EU numbering; copies: 2 + 2
B37: IgG1-F900 (antibody)
heavy: B1 heavy with D240P, V252T, Y257R, N317D, G318D
light: not shown
notes: EU numbering; copies: 2 + 2
B38: IgG1-F882 (antibody)
heavy: B1 heavy with D240P, V252T, Y257R, Y438L
light: not shown
notes: EU numbering; copies: 2 + 2
B39: IgG1-F870 (antibody)
heavy: B1 heavy with L237K, D240P, S241K, V252T, Y257R, T309Q, Q313A
light: not shown
notes: EU numbering; copies: 2 + 2
B40: IgG1-F858 (antibody)
heavy: B1 heavy with D240P, V252T, Y257R, D282N
light: not shown
notes: EU numbering; copies: 2 + 2
B41: IgG1-F913 (antibody)
heavy: B1 heavy with D240P, V252T, Y257R, N317D, G318T
light: not shown
notes: EU numbering; copies: 2 + 2
B42: IgG1-F889 (antibody)
heavy: B1 heavy with D240P, V252T, Y257R, Y438T
light: not shown
notes: EU numbering; copies: 2 + 2
B43: IgG1-F891 (antibody)
heavy: B1 heavy with D240P, V252T, Y257R, Y438W
light: not shown
notes: EU numbering; copies: 2 + 2
B44: IgG1-F911 (antibody)
heavy: B1 heavy with D240P, V252T, Y257R, N317D, G318R
light: not shown
notes: EU numbering; copies: 2 + 2
B45: IgG1-F896 (antibody)
heavy: B1 heavy with L237R, D240P, S241K, V252T, Y257R, N288E, T309Q, Q313A, N317E
light: not shown
notes: EU numbering; copies: 2 + 2
B46: IgG1-F894 (antibody)
heavy: B1 heavy with L237R, D240P, S241K, V252T, Y257R, Y438I
light: not shown
notes: EU numbering; copies: 2 + 2
B47: IgG1-F855 (antibody)
heavy: B1 heavy with D240P, V252T, Y257R, D282K
light: not shown
notes: EU numbering; copies: 2 + 2
B48: IgG1-F902 (antibody)
heavy: B1 heavy with D240P, V252T, Y257R, N317D, G318F
light: not shown
notes: EU numbering; copies: 2 + 2
B49: IgG1-F908 (antibody)
heavy: B1 heavy with D240P, V252T, Y257R, N317D, G318N
light: not shown
notes: EU numbering; copies: 2 + 2
B50: IgG1-F871 (antibody)
heavy: B1 heavy with L237R, D240P, S241K, V252T, Y257R, T309Q, Q313A
light: not shown
notes: EU numbering; copies: 2 + 2
B51: IgG1-F862 (antibody)
heavy: B1 heavy with D240P, V252T, Y257R, D282S
light: not shown
notes: EU numbering; copies: 2 + 2
B52: IgG1-F909 (antibody)
heavy: B1 heavy with D240P, V252T, Y257R, N317D, G318P
light: not shown
notes: EU numbering; copies: 2 + 2
B53: IgG1-F892 (antibody)
heavy: B1 heavy with D240P, V252T, S256T, Y257R, Y438I
light: not shown
notes: EU numbering; copies: 2 + 2
B54: IgG1-F918 (antibody)
heavy: B1 heavy with D240P, V252T, Y257R, D282E, N386A, N391A
light: not shown
notes: EU numbering; copies: 2 + 2
B55: IgG1-F875 (antibody)
heavy: B1 heavy with D240P, V252T, Y257R, Y438A
light: not shown
notes: EU numbering; copies: 2 + 2
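Also: test antibodies captured on a Protein L chip with human FcRn flowed over as analyte, KD obtained as the ratio of dissociation to association rate constants.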

T1 sequence (chain, as listed by the source limits assumed, chain 1 of 2): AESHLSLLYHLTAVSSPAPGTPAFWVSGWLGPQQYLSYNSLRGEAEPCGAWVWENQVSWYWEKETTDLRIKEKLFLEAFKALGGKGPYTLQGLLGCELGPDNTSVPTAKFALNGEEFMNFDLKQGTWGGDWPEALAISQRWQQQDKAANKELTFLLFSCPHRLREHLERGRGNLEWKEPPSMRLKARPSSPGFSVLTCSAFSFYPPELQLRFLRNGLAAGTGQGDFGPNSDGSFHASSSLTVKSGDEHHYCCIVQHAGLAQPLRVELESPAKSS
T1 sequence (P61769 21-119 limits assumed, chain 2 of 2): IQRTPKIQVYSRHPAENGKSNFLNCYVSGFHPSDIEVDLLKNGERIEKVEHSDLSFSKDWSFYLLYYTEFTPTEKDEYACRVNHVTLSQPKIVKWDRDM

This assay has as its target T1, soluble human FcRn complexed with β2-microglobulin (human, UniProt P61769 21-119, limits assumed).
T1 construct: also called hFcRn
Put plainly: Biacore SPR, pH 7.0. (In SPR one partner is held on a chip, and binding of the other changes the refractive index at the surface.)
In turn, B1 returned a Kd of 830 nM.

With B2, the Kd was found to be 270 nM.

The molecule B3 yielded a Kd of 97 nM.

Consider B4, for which the Kd was found to be 230 nM.

In the case of B5, the Kd was found to be 230 nM.

B6: binding was put at a Kd of 21 nM.

Turning to B7, the Kd turned out to be 330 nM.

B8: the Kd was 330 nM.

B9 gave a Kd of 130 nM.

B10 returned a Kd of 320 nM.

B11: binding was put at a Kd of 140 nM.

B12: the Kd is 250 nM.

With B13, the affinity, expressed as Kd, was 190 nM.

For the molecule B14, the Kd was 320 nM.

B15: binding was characterised by a dissociation constant (Kd) of 120 nM.

Molecule B16 returned a Kd of 480 nM.

Molecule B17 showed a Kd of 830 nM.

Molecule B18 displayed a Kd of 130 nM.

As for B19, the Kd stood at 150 nM.

Molecule B20 registered a Kd of 20 nM.

B21 yielded a Kd of 390 nM.

Turning to B22, the Kd came to 150 nM.

As for B23, the Kd came to 130 nM.

In turn, B24 registered a Kd of 110 nM.

For the molecule B25, binding was put at a Kd of 130 nM.

Regarding B26, the Kd was 170 nM.

In the case of B27, the Kd came to 100 nM.

With B28, the affinity, expressed as Kd, was 400 nM.

B29 registered a Kd of 920 nM.

As for B30, binding was put at a Kd of 330 nM.

Turning to B31, the affinity, expressed as Kd, was 98 nM.

On to B32, for which the Kd stood at 210 nM.

With B33, binding was put at a Kd of 280 nM.

Molecule B34 displayed a dissociation constant Kd of 310 nM.

In turn, B35 had a Kd of 290 nM.

Take B36: the Kd came to 120 nM.

In the case of B37, the affinity, expressed as Kd, was 170 nM.

Consider B38, for which binding was put at a Kd of 130 nM.

The molecule B39 came in with a Kd of 73 nM.

B40 had a Kd of 320 nM.

B41 showed a Kd of 110 nM.

B42 gave a Kd of 220 nM.

For the molecule B43, binding was characterised by a dissociation constant (Kd) of 170 nM.

In turn, B44 displayed a Kd of 130 nM.

B45 registered a Kd of 20 nM.

Turning to B46, binding was characterised by a dissociation constant (Kd) of 92 nM.

As to B47, the Kd amounted to 320 nM.

For B48, binding was put at a Kd of 220 nM.

In turn, B49 had a Kd of 150 nM.

The molecule B50 registered a Kd of 71 nM.

B51 registered a Kd of 300 nM.

B52 yielded a Kd of 130 nM.

In turn, B53 showed a dissociation constant (Kd) of 71 nM.

On to B54, for which binding was characterised by a dissociation constant (Kd) of 280 nM.

For B55, the Kd is 480 nM.
